Measurements published in patent US20230340142A1 (SUZHOU NEOLOGICS BIOSCIENCE, published 2023).

Target: T1, human PD-L1 (human, UniProt Q9NZQ7 19-238, limits assumed)
T1 construct: also called hPD-L1
Experiment: Octet-96 BLI; antigen not named, taken as human PD-L1

T1 sequence (Q9NZQ7 19-238 limits assumed): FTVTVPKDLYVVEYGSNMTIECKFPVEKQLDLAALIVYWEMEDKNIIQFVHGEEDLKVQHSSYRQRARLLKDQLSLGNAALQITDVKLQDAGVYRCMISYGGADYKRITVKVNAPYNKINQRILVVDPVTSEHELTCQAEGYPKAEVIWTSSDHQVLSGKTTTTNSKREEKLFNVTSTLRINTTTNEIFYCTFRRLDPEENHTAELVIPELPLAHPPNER

Binder	Kd [nM]
DhVH2/DhVL2 (antibody, V domains shown, Humanized Clone D; constant regions from the vector, 293F cells; also called humanized Clone D, Dh VH2 + Dh VL2) VH: QVQLVQSGAEVKKPGASVKVSCKASGYSFTGYTMNWVKQAHGQGLEWMGLIIPYNGGISYNQKFKDRVTMTVDTSISTAYMELSRLRSDDTAVYYCASLITTAPRDSMDYWGQGTLVTVSS VL: DIQMTQSPSSLSASVGDRVTITCRASQDISNYLNWYQQKPGKAPKLLIYYTSKLHSGVPSRFSGSGSGTDFTLTISSLQPEDIATYYCQQGDALPWTFGGGTKVEIK	11.8
DhVH1/DhVL2 (antibody, V domains shown, Humanized Clone D; constant regions from the vector, 293F cells; also called humanized Clone D, Dh VH1 + Dh VL2) VH: QVQLVQSGAEVKKPGASVKVSCKASGYSFTGYTMNWVKQSHGQGLEWIGLIIPYNGGISYNQKFKDRATLTVDTSSSTAYMELSRLRSDDTAVYYCASLITTAPRDSMDYWGQGTLVTVSS VL: DIQMTQSPSSLSASVGDRVTITCRASQDISNYLNWYQQKPGKAPKLLIYYTSKLHSGVPSRFSGSGSGTDFTLTISSLQPEDIATYYCQQGDALPWTFGGGTKVEIK	12.4
DhVH-CDR graft/ DhVL-CDR graft (antibody, V domains shown, also called CDR-grafted humanized Clone D) VH: QVQLVQSGAEVKKPGASVKVSCKASGYSFTGYTMNWVRQAPGQGLEWMGLIIPYNGGISYNQKFKDRVTMTRDTSISTVYMELSRLRSDDTAVYYCASLITTAPRDSMDYWGQGTLVTVSS VL: DIQMTQSPSSLSASVGDRVTITCRASQDISNYLNWYQQKPGKAPKLLIYYTSKLHSGVPSRFSGSGSGTDFTFTISSLQPEDIATYYCQQGDALPWTFGGGTKVEIK	10.3
DhVH2/DhVL1 (antibody, V domains shown, Humanized Clone D; constant regions from the vector, 293F cells; also called humanized Clone D, Dh VH2 + Dh VL1) VH: QVQLVQSGAEVKKPGASVKVSCKASGYSFTGYTMNWVKQAHGQGLEWMGLIIPYNGGISYNQKFKDRVTMTVDTSISTAYMELSRLRSDDTAVYYCASLITTAPRDSMDYWGQGTLVTVSS VL: DIQMTQSTSSLSASVGDRVTITCRASQDISNYLNWYQQKPGGAPKLLIYYTSKLHSGVPSRFSGSGSGTDYTLTISSLQQEDIATYYCQQGDALPWTFGGGTKVEIK	1.27
ChVH3/ChVL3 (antibody, V domains shown, Humanized Clone C; constant regions (CH1-FC/CL) from the vector, expressed in 293F cells; also called humanized Clone C, Ch VH3 + Ch VL3) VH: QVQLVQSGAEVKKPGASVKVSCKASGFNIKDTYMHWVRQAPGQGLEWIGRIDPANGNTKYDPKFQGRVTITTDTSANTAYMELSSLRSEDTAVYYCARGLGRWFAYWGQGTTVTVSS VL: DIQMTQSPSSLSASVGDRVTITCQASQDVSNAVAWYQQKPGKAPKLLIYSASNLYTGVPSRFSGSGSGTDFTFTISSLQPEDIATYYCQQHDSTPLTFGQGTKLELK	0.242
ChVH4/ChVL3 (antibody, V domains shown, Humanized Clone C; constant regions (CH1-FC/CL) from the vector, expressed in 293F cells; also called humanized Clone C, Ch VH4 + Ch VL3) VH: QVQLVQSGAEVKKPGASVKVSCKASGFNIKDTYMHWVRQAPGQGLEWIGRIDPANGNTKYDPKFQGRVTITTDTSASTAYLELSSLRSEDTAVYYCARGLGRWFAYWGQGTTVTVSS VL: DIQMTQSPSSLSASVGDRVTITCQASQDVSNAVAWYQQKPGKAPKLLIYSASNLYTGVPSRFSGSGSGTDFTFTISSLQPEDIATYYCQQHDSTPLTFGQGTKLELK	0.177
ChVH2/ChVL2 (antibody, V domains shown, Humanized Clone C; constant regions (CH1-FC/CL) from the vector, expressed in 293F cells; also called humanized Clone C, Ch VH2 + Ch VL2) VH: QVQLVQSGAEVKKPGASVKVSCKASGFNIKDTYMHWVRQAPGQGLEWIGRIDPANGNTKYDPKFQGRATITTDTSTNTAYLELSSLRSEDTAVYYCARGLGRWFAYWGQGTTVTVSS VL: DIQMTQSPSSLSASVGDRVTITCKASQDVSNAVAWYQQKPGKAPKLLIYSASNRYTGVPSRFSGSGSGTDFTFTISSLQPEDIATYYCQQHDSTPLTFGQGTKLELK	0.201
ChVH2/ChVL3 (antibody, V domains shown, Humanized Clone C; constant regions (CH1-FC/CL) from the vector, expressed in 293F cells; also called humanized Clone C, Ch VH2 + Ch VL3) VH: QVQLVQSGAEVKKPGASVKVSCKASGFNIKDTYMHWVRQAPGQGLEWIGRIDPANGNTKYDPKFQGRATITTDTSTNTAYLELSSLRSEDTAVYYCARGLGRWFAYWGQGTTVTVSS VL: DIQMTQSPSSLSASVGDRVTITCQASQDVSNAVAWYQQKPGKAPKLLIYSASNLYTGVPSRFSGSGSGTDFTFTISSLQPEDIATYYCQQHDSTPLTFGQGTKLELK	0.329
ChVH3/ChVL1 (antibody, V domains shown, Humanized Clone C; constant regions (CH1-FC/CL) from the vector, expressed in 293F cells; also called humanized Clone C, Ch VH3 + Ch VL1) VH: QVQLVQSGAEVKKPGASVKVSCKASGFNIKDTYMHWVRQAPGQGLEWIGRIDPANGNTKYDPKFQGRVTITTDTSANTAYMELSSLRSEDTAVYYCARGLGRWFAYWGQGTTVTVSS VL: DIQMTQSPSSLSASVGDRVTITCKASQDVSNAVAWYQQKPGKAPKLLIYSASNRYTGVPDRFSGSGSGTDFTFTISSLQPEDIATYYCQQHDSTPLTFGQGTKLELK	0.16
BhVH2/BhVL1 (antibody, V domains shown, Humanized Clone B; VH and VL cloned into vectors carrying constant regions (CH1-FC/CL), expressed in 293F cells; also called humanized Clone B, Bh VH2 + Bh VL1) VH: QGQLVQSGAEVKKPGASVKVSCKTSGFTFSSSYISWVRQAPGQGLEWMGWIYAGTGGTSYNQKFTGRVTMTVDTSTSTAYMELRSLRSDDTAVYYCARHEGKYWYFDVWGQGTTVTVSS VL: DIQMTQSPSSLSASVGDRVTITCSASSSVSYVHWYQQKPGKAPKPWIYDTSNLASGFPSRFSGSGSGTDYTLTISSLQPEDFATYYCHQRSSYPWTFGGGTKVEIK	1.13
BhVH2/BhVL8 (antibody, V domains shown, Humanized Clone B; constant regions (CH1-FC/CL) from the vector, expressed in 293F cells; also called humanized Clone B, Bh VH2 + Bh VL8) VH: QGQLVQSGAEVKKPGASVKVSCKTSGFTFSSSYISWVRQAPGQGLEWMGWIYAGTGGTSYNQKFTGRVTMTVDTSTSTAYMELRSLRSDDTAVYYCARHEGKYWYFDVWGQGTTVTVSS VL: EIVMTQSPATLSVSPGERATLSCSASSSVSYVHWYQQKPGQAPRPWIYDTSNLASGFPARFSGSGSGTEYTLTISSLQSEDAAVYYCHQRSSYPWTFGGGTKVEIK	1.18
BhVH5/BhVL8 (antibody, V domains shown, Humanized Clone B; constant regions (CH1-FC/CL) from the vector, expressed in 293F cells; also called humanized Clone B, Bh VH5 + Bh VL8) VH: QGQLVQSGAEVKKPGSSVKVSCKTSGFTFSSSYISWVRQAPGQGLEWMGWIYAGTGGTSYNQKFTGRVTITVDTSTSTAYMELSSLRSEDTAVYYCARHEGKYWYFDVWGQGTTVTVSS VL: EIVMTQSPATLSVSPGERATLSCSASSSVSYVHWYQQKPGQAPRPWIYDTSNLASGFPARFSGSGSGTEYTLTISSLQSEDAAVYYCHQRSSYPWTFGGGTKVEIK	0.619
BhVH2/BhVL7 (antibody, V domains shown, Humanized Clone B; constant regions (CH1-FC/CL) from the vector, expressed in 293F cells; also called humanized Clone B, Bh VH2 + Bh VL7) VH: QGQLVQSGAEVKKPGASVKVSCKTSGFTFSSSYISWVRQAPGQGLEWMGWIYAGTGGTSYNQKFTGRVTMTVDTSTSTAYMELRSLRSDDTAVYYCARHEGKYWYFDVWGQGTTVTVSS VL: EIVMTQSPATLSVSPGERATLSCSASSSVSYVHWYQQKPGQAPRLLIYDTSNLASGIPARFSGSGSGTEFTLTISSLQSEDFAVYYCHQRSSYPWTFGGGTKVEIK	0.942
BhVH3/BhVL3 (antibody, V domains shown, Humanized Clone B; constant regions (CH1-FC/CL) from the vector, expressed in 293F cells; also called humanized Clone B, Bh VH3 + Bh VL3) VH: QVQLVQSGAEVKKPGASVKVSCKTSGFTFSSSYISWVRQAPGQGLEWMGWIYAGTGGTSYNQKFTGRVTMTVDTSTSTAYMELRSLRSDDTAVYYCARHEGKYWYFDVWGQGTTVTVSS VL: DIQMTQSPSTLSASVGDRVTITCSASSSVSYVHWYQQKPGKAPKLLIYDTSNLASGVPSRFSGSGSGTEFTLTISSLQPDDFATYYCHQRSSYPWTFGGGTKVEIK	1.29
BhVH5/BhVL7 (antibody, V domains shown, Humanized Clone B; constant regions (CH1-FC/CL) from the vector, expressed in 293F cells; also called humanized Clone B, Bh VH5 + Bh VL7) VH: QGQLVQSGAEVKKPGSSVKVSCKTSGFTFSSSYISWVRQAPGQGLEWMGWIYAGTGGTSYNQKFTGRVTITVDTSTSTAYMELSSLRSEDTAVYYCARHEGKYWYFDVWGQGTTVTVSS VL: EIVMTQSPATLSVSPGERATLSCSASSSVSYVHWYQQKPGQAPRLLIYDTSNLASGIPARFSGSGSGTEFTLTISSLQSEDFAVYYCHQRSSYPWTFGGGTKVEIK	0.4

The remaining lines, values ahead:

Kd [nM]	Binder
1.67	DhVH3/DhVL2 (antibody, V domains shown, Humanized Clone D; constant regions from the vector, 293F cells; also called humanized Clone D, Dh VH3 + Dh VL2) VH: QVQLVQSGAEVKKPGASVKVSCKASGYSFTGYTMNWVRQAPGQGLEWMGLIIPYNGGISYNQKFKDRVTMTVDTSISTAYMELSRLRSDDTAVYYCASLITTAPRDSMDYWGQGTLVTVSS VL: DIQMTQSPSSLSASVGDRVTITCRASQDISNYLNWYQQKPGKAPKLLIYYTSKLHSGVPSRFSGSGSGTDFTLTISSLQPEDIATYYCQQGDALPWTFGGGTKVEIK
9.09	DhVH3/DhVL1 (antibody, V domains shown, Humanized Clone D; constant regions from the vector, 293F cells; also called humanized Clone D, Dh VH3 + Dh VL1) VH: QVQLVQSGAEVKKPGASVKVSCKASGYSFTGYTMNWVRQAPGQGLEWMGLIIPYNGGISYNQKFKDRVTMTVDTSISTAYMELSRLRSDDTAVYYCASLITTAPRDSMDYWGQGTLVTVSS VL: DIQMTQSTSSLSASVGDRVTITCRASQDISNYLNWYQQKPGGAPKLLIYYTSKLHSGVPSRFSGSGSGTDYTLTISSLQQEDIATYYCQQGDALPWTFGGGTKVEIK
11.1	DhVH1/DhVL1 (antibody, V domains shown, Humanized Clone D; constant regions (CH1-FC/CL) from the vector, 293F cells; also called humanized Clone D, Dh VH1 + Dh VL1) VH: QVQLVQSGAEVKKPGASVKVSCKASGYSFTGYTMNWVKQSHGQGLEWIGLIIPYNGGISYNQKFKDRATLTVDTSSSTAYMELSRLRSDDTAVYYCASLITTAPRDSMDYWGQGTLVTVSS VL: DIQMTQSTSSLSASVGDRVTITCRASQDISNYLNWYQQKPGGAPKLLIYYTSKLHSGVPSRFSGSGSGTDYTLTISSLQQEDIATYYCQQGDALPWTFGGGTKVEIK
1.17	ChVH5/ChVL1 (antibody, V domains shown, Humanized Clone C; constant regions (CH1-FC/CL) from the vector, expressed in 293F cells; also called humanized Clone C, Ch VH5 + Ch VL1) VH: QVQLVQSGAEVKKPGASVKVSCKASGFNIKDTYMHWVRQAPGQRLEWIGRIDPANGNTKYSQKFQGRVTITRDTSASTAYMELSSLRSEDTAVYYCARGLGRWFAYWGQGTTVTVSS VL: DIQMTQSPSSLSASVGDRVTITCKASQDVSNAVAWYQQKPGKAPKLLIYSASNRYTGVPDRFSGSGSGTDFTFTISSLQPEDIATYYCQQHDSTPLTFGQGTKLELK
0.255	ChVH1/ChVL1 (antibody, V domains shown, Humanized Clone C; constant regions (CH1-FC/CL) from the vector, expressed in 293F cells; also called humanized Clone C, Ch VH1 + Ch VL1) VH: QVQLVQSGAEVKKPGASVKLSCTASGFNIKDTYMHWVKQRPGQGLEWIGRIDPANGNTKYDPKFQGKATITTDTSTNTAYLELSSLRSEDTAVYYCARGLGRWFAYWGQGTTVTVSS VL: DIQMTQSPSSLSASVGDRVTITCKASQDVSNAVAWYQQKPGKAPKLLIYSASNRYTGVPDRFSGSGSGTDFTFTISSLQPEDIATYYCQQHDSTPLTFGQGTKLELK
3.68	Chimeric D (antibody, V domains shown, also called chimeric Clone D) VH: EVQLQQSGPELVKPGASMKISCKASGYSFTGYTMNWVKQSHGKNLEWIGLIIPYNGGISYNQKFKDKATLTVDKSSSTAYMELLSLTSEDSAVYYCASLITTAPRDSMDYWGQGTSVTVSS VL: DIQMTQTTSSLSASLGDRVTISCRASQDISNYLNWYQQKPDGSVKLLIYYTSKLHSGVPSRFSGSGSGTDYSLTISNLEQEDIATYFCQQGDALPWTFGGGTKLEIK
